Results: US20260049134A1 (UNIVERSITY OF FLORIDA RESEARCH FOUNDATION, published 2026)

T1: PTPRG-Fc (ECD of human PTPRG, aa 20-736, fused to human Fc gamma 1) (human, UniProt P23470 20-736)
T1 construct: Made in-house in Expi293 cells; Used in ELISA and SPR; also called recombinant PTPRG-Fc; PTRPG; not shown: human IgG1 Fc (Fc gamma 1) after the hinge
T1 sequence: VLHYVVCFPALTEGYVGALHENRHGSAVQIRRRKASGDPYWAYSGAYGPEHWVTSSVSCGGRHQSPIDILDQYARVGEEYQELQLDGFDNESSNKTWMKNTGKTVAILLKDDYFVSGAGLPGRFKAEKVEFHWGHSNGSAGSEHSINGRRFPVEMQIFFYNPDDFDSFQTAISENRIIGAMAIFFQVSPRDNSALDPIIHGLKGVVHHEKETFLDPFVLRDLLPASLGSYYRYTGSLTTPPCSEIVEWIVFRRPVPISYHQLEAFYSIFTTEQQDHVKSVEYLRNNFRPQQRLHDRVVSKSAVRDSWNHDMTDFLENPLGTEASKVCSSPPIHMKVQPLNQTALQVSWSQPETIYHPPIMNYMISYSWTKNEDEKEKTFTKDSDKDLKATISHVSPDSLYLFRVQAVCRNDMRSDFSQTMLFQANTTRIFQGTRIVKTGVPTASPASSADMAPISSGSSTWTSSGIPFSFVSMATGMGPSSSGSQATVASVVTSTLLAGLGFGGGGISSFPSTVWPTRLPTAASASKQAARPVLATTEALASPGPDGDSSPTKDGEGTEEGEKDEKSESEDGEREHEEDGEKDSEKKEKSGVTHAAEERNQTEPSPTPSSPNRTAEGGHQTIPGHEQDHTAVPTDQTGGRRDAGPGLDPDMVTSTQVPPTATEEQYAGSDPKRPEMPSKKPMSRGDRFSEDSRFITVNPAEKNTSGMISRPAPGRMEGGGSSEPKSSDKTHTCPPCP


The binders below were run against T1, PTPRG-Fc (ECD of human PTPRG, aa …) (assay: SPR, Biacore X100; PTPRG-Fc captured by anti-human Fc on CM5, Fab injected; mean of triplicates (SD)).
Protocol: A Biacore X100 instrument was used to determine the monovalent affinities of the C-1 cluster of Fabs for recombinant PTPRG-Fc, as previously described. […] Each experiment was repeated in triplicate. Rate constants (kₒₙ, koff, and Kd) were calculated using the Biacore evaluation software (Cytiva).

| Kd [nM] | koff [s⁻¹] | kon [M⁻¹ s⁻¹] | Binder |
| --- | --- | --- | --- |
| 0.65 | 0.000367 | 566000 | HW-25 Fab (chimeric rabbit/human, His-tagged) (Fab, V domains shown, Monovalent Fab: rbVH-huCH1 and rbVL-huCL, His-tagged, made in E. coli from pET11a) VH: QSLEESGGRLVTPGTPLTLTCTVSGFSLSSYAMGWVRQAPGKGLEWIGIIDSRGSTYYATWAKGRFTISKTSTTVDLKITSPTTEDTATYFCAREDSYYYDSFNLWGPGTLVTVSS VL: SFVLTQPASVQVNLGQTVSLTCTADTLSRRYASWYQQKPGQAPVLLIYRDTSRPSGVPDRFSGSSSGNTATLTISGAQAGDEADYYCATSDGSGSSYQCVFGGGTQLTVT |
| 19.1 | 0.0153 | 826000 | HW-70 Fab (chimeric rabbit/human, His-tagged) (Fab, V domains shown, Monovalent Fab: rbVH-huCH1 and rbVL-huCL, His-tagged, made in E. coli from pET11a) VH: QSLEESGGRLVTPGTPLTLTCTVSGFSLSSNAMSWVRQAPGKGLEWIGTIDGYGYTYYASWAKGRFTVSKTSTTVDLKITSPTTEDTATYFCAREIYLGSNFWGPGTLVTISS VL: SFVLTQPASVQVNLGQTVSLTCTADTLSRRYASWYQQKPGQAPVLLIYRDTSRPSGVPDRFSGSSSGNTATLTISGAQAGDEADYYCATADGSGSSYQFVFGGGTQLTVT |
| 28.9 | 0.00429 | 149000 | HW-42 Fab (chimeric rabbit/human, His-tagged) (Fab, V domains shown, Monovalent Fab: rbVH-huCH1 and rbVL-huCL, His-tagged, made in E. coli from pET11a) VH: QSVKESEGGLFKPADTLTLTCTVSGFSLSSNEISWVRQAPGEGLEYIGIIDTGGRAYYAVWARSRSTITRNTNLNTVTLKMTSLTAADTATYFCARGGVDTEWYAFSSWGPGTLVTVPS VL: SFVLTQPASVQVNLGQTVSLTCTADTLSRRYASWYQQKPGQAPVLLIFRDTSRPSGVPDRFSGSSSGDTATLTISGAQAGDEADYYCATSDGSGSNYQYVFGGGTQLTVT |
| 2.54 | 0.000482 | 195000 | HW-1 Fab (chimeric rabbit/human, His-tagged) (Fab, V domains shown, Monovalent Fab: rbVH-huCH1 and rbVL-huCL, His-tagged, made in E. coli from pET11a) VH: QSLEESGGGLFKPTDTLTLTCTASGFSLGSSYAISWVRQAPGKELEWIGTIDSGRAYYARWAKSRSTITRNTNENTVTLKMTSLTAADTATYFCARDLIPTYSQDIWGPGTLVTISS VL: SFVLTQPASVQVNLGQTVSLTCTADTLSRRYASWYQQKPGQAPVLLIYRDTSRPSGVPDRFSGSSSGNTATLTISGAQAGDEADYYCATSDGSGNSYQYVFGGGTQLTVT |
| 9.34 | 0.00158 | 169000 | HW-17 Fab (chimeric rabbit/human, His-tagged) (Fab, V domains shown, Monovalent Fab: rbVH-huCH1 and rbVL-huCL, His-tagged, made in E. coli from pET11a) VH: QSLGESRGRLVTPDETLTLTCTVSGIDLSSNAMSWVRQAPGEGLEWIGTINTGGRAYYASWAKGRFTISRTSTTVDLKMTSLTTEDTATYFCARERYSDGRAYDIWGPGTLVTISS VL: SFVLTQPASVQVNLGQTVSLTCTADTLSRRYASWYQQKPGQAPVLLIYTDSNRPSGIPDRFSGSSSGNTATLTISGAQAGDEADYYCATDDGSGSIYQYVFGGGTQLTVT |
